This note sets out measurements from patent US20200261595A1.

The target in this assay is insulin receptor of isolated rat adipocytes (rat) (UniProt P15127). As to the kind of experiment: cell-based or functional assay.
Sequence of insulin receptor of isolated rat adipocytes (rat) (P15127 27-1383): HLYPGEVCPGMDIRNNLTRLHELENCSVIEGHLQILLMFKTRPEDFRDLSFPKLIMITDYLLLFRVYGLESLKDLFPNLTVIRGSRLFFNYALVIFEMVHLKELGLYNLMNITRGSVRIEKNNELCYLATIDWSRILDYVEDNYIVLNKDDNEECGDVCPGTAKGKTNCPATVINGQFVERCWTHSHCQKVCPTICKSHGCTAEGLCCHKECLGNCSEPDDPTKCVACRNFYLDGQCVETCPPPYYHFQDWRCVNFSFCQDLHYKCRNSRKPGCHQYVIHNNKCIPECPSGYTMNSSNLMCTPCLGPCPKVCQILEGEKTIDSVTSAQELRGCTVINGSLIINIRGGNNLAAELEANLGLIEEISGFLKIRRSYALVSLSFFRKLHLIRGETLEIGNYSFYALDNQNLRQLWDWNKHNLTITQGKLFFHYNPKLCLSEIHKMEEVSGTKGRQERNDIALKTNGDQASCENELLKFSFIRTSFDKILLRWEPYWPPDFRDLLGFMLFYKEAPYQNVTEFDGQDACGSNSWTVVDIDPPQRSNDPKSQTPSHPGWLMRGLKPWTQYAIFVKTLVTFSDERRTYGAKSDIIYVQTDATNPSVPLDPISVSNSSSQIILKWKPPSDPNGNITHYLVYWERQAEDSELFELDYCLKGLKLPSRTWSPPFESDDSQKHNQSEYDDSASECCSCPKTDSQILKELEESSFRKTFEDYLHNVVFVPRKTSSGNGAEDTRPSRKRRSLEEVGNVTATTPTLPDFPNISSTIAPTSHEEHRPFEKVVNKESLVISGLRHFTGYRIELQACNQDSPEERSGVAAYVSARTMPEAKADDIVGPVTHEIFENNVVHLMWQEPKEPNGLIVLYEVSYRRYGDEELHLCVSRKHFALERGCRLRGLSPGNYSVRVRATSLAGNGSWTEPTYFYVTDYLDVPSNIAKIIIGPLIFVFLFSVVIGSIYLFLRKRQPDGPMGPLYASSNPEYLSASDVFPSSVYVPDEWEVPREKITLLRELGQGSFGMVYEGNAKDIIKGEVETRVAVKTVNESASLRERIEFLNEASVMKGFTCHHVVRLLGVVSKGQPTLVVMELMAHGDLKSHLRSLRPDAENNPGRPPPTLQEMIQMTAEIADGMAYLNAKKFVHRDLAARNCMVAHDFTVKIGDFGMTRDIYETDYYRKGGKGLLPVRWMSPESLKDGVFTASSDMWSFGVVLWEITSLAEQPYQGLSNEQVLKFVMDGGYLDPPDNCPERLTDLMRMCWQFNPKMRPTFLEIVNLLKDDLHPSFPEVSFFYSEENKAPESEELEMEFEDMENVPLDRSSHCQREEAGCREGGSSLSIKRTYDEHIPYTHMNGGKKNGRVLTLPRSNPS

Regarding “(A14E, A21G, A22(GQEP)19, 98K^, A99P, B25H, B29R, desB30 human insulin)/(226A, 227G, 228P, 234A, 235K, des447 hIgG4-Fc(228-447)) 3,5-bis[(2-acetyl)amino]benzoyl conjugate (from UniProt P01861 109-325)”, the Lipogenesis in rat adipocytes [Potency (%)] Mean Value (% of human insulin) is 5.44. With “A14E, B(-78K^), B(-77P), B(-1)(GQAP)19, B25H, B29R, desB30 human insulin/(227A, 234A, 235K, 297E, 315Q, 384Q, des447 hIgG4-Fc(228-447)) 4-[bis[2-[(2-acetyl)amino]ethyl]amino]-4-oxo-butanoyl conjugate (from UniProt P01861 108-325)” the figure was 0.87.
